Results published in PMC4141822.

Columns and labels:
Settings in all cases: protein: recombinant; tags: none stated (pET24a); label: 5' 32P
[1] = target: T1, Csa5 Y29A (Thermoproteus tenax Kra1, UniProt G4RJZ0 1-130, Y29A); assay: EMSA; shift from 15 uM; EMSA: 100 mM HEPES/KOH pH 7, 10 mM beta-mercaptoethanol, 37 C 30 min, 6% native TBE PAGE; MST: 50 mM Tris-HCl pH 7.4, 150 mM NaCl, 0.05% Tween-20, 37 C 30 min
T1 sequence: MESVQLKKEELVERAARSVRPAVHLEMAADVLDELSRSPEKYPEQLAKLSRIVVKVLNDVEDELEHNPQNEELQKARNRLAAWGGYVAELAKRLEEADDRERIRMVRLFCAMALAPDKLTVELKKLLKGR

[2] = target: T2, Csa5 D33A (Thermoproteus tenax Kra1, UniProt G4RJZ0 1-130, D33A); assay: as above
T2 sequence: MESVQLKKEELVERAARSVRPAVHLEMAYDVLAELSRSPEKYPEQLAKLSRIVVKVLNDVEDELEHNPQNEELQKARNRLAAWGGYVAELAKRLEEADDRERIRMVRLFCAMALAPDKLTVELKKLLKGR

[3] = target: T3, Csa5 D30A/D33A (Thermoproteus tenax Kra1, UniProt G4RJZ0 1-130, D30A;D33A); assay: EMSA; defined shift from 30 uM; EMSA: 100 mM HEPES/KOH pH 7, 10 mM beta-mercaptoethanol, 37 C 30 min, 6% native TBE PAGE; MST: 50 mM Tris-HCl pH 7.4, 150 mM NaCl, 0.05% Tween-20, 37 C 30 min
T3 sequence: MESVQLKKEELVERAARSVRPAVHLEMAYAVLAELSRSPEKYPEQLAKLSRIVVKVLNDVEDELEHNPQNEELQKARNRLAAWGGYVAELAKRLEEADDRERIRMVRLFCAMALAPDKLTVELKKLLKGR

B1: non-target (NT) ssDNA 97 nt (ssDNA)
DNA: GTCGACTAATACGACTCACTATAGGCCTATCGCTTGTCCAACCGGGCTCCTCTATATGTCGTCATTAGCTTACCGCTGAGCAATAACTAGCAAGCTT
[1]
  binding signal: ~10 % of WT binding
[2]
  binding signal: ~18 % of WT binding
[3]
  binding signal: ~4 % of WT binding
